In publication PMC12796746, “Profiling the TRPV4 ankyrin repeat domain interactome and its disruption by neuromuscular disease-causing mutations” (The Journal of Biological Chemistry, 2025):

B1: OTUB2 (on the HuProt array) (enzyme, human, UniProt Q96DC9 1-234, looked up)
chain: MSETSFNLISEKCDILSILRDHPENRIYRRKIEELSKRFTAIRKTKGDGNCFYRALGYSYLESLLGKSREIFKFKERVLQTPNDLLAAGFEEHKFRNFFNAFYSVVELVEKDGSVSSLLKVFNDQSASDHIVQFLRLLTSAFIRNRADFFRHFIDEEMDIKDFCTHEVEPMATECDHIQITALSQALSIALQVEYVDEMDTALNHHVFPEAATPSVYLLYKTSHYNILYAADKH
notes: deubiquitinase OTUB2, human, spotted on the HuProt array; source: bought: CDI Laboratories (HuProt v2.0 microarray)
B2: 3-hydroxybutyrate dehydrogenase type 2 (natural protein, human, UniProt Q9BUT1 1-245, looked up)
chain: MGRLDGKVIILTAAAQGIGQAAALAFAREGAKVIATDINESKLQELEKYPGIQTRVLDVTKKKQIDQFANEVERLDVLFNVAGFVHHGTVLDCEEKDWDFSMNLNVRSMYLMIKAFLPKMLAQKSGNIINMSSVASSVKGVVNRCVYSTTKAAVIGLTKSVAADFIQQGIRCNCVCPGTVDTPSLQERIQARGNPEEARNDFLKRQKTGRFATAEEIAMLCVYLASDESAYVTGNPVIIDGGWSL
notes: human, spotted on the HuProt array; also called BDH2; source: bought: CDI Laboratories (HuProt v2.0 microarray)
B3: 14-3-3 protein eta (natural protein, human, UniProt Q04917 1-246, looked up)
chain: MGDREQLLQRARLAEQAERYDDMASAMKAVTELNEPLSNEDRNLLSVAYKNVVGARRSSWRVISSIEQKTMADGNEKKLEKVKAYREKIEKELETVCNDVLSLLDKFLIKNCNDFQYESKVFYLKMKGDYYRYLAEVASGEKKNSVVEASEAAYKEAFEISKEQMQPTHPIRLGLALNFSVFYYEIQNAPEQACLLAKQAFDDAIAELDTLNEDSYKDSTLIMQLLRDNLTLWTSDQQDEEAGEGN
notes: human, spotted on the HuProt array; also called YWHAH; source: bought: CDI Laboratories (HuProt v2.0 microarray)
B4: ADP-ribosylation factor-like protein 10 (natural protein, human, UniProt Q8N8L6 1-244, looked up)
chain: MAPRPLGPLVLALGGAAAVLGSVLFILWKTYFGRGRERRWDRGEAWWGAEAARLPEWDEWDPEDEEDEEPALEELEQREVLVLGLDGAGKSTFLRVLSGKPPLEGHIPTWGFNSVRLPTKDFEVDLLEIGGSQNLRFYWKEFVSEVDVLVFVVDSADRLRLPWARQELHKLLDKDPDLPVVVVANKQDLSEAMSMGELQRELGLQAIDNQREVFLLAASIAPAGPTFEEPGTVHIWKLLLELLS
notes: human, spotted on the HuProt array; also called ARL10; source: bought: CDI Laboratories (HuProt v2.0 microarray)
B5: Centrin-3 (natural protein, human, UniProt O15182 1-167, looked up)
chain: MSLALRSELVVDKTKRKKRRELSEEQKQEIKDAFELFDTDKDEAIDYHELKVAMRALGFDVKKADVLKILKDYDREATGKITFEDFNEVVTDWILERDPHEEILKAFKLFDDDDSGKISLRNLRRVARELGENMSDEELRAMIEEFDKDGDGEINQEEFIAIMTGDI
notes: human, spotted on the HuProt array; also called CETN3; source: bought: CDI Laboratories (HuProt v2.0 microarray)
B6: Cysteine-rich DPF motif domain-containing protein 1 (natural protein, human, UniProt Q6NVV7 1-123, looked up)
chain: MASHVECRPLGVFECELCTLTAPYSYVGQKPPNTQSMVLLEESYVMKDPFTSDKDRFLVLGSCCSLCSRLVCVGPECSLFYSKRFCLPCVRENINAFPQEIRQDLEKRKAPSKRTPSQPGSRT
notes: human, spotted on the HuProt array; also called CDPF1; source: bought: CDI Laboratories (HuProt v2.0 microarray)
B7: Deoxycytidylate deaminase (natural protein, human, UniProt P32321 1-178, looked up)
chain: MSEVSCKKRDDYLEWPEYFMAVAFLSAQRSKDPNSQVGACIVNSENKIVGIGYNGMPNGCSDDVLPWRRTAENKLDTKYPYVCHAELNAIMNKNSTDVKGCSMYVALFPCNECAKLIIQAGIKEVIFMSDKYHDSDEATAARLLFNMAGVTFRKFIPKCSKIVIDFDSINSRPSQKLQ
notes: human, spotted on the HuProt array; also called DCTD; source: bought: CDI Laboratories (HuProt v2.0 microarray)
B8: Huntingtin-interacting protein K (natural protein, human, UniProt Q9NX55 1-121, looked up)
chain: MATEGDVELELETETSGPERPPEKPRKHDSGAADLERVTDYAEEKEIQSSNLETAMSVIGDRRSREQKAKQEREKELAKVTIKKEDLELIMTEMEISRAAAERSLREHMGNVVEALIALTN
notes: human, spotted on the HuProt array; also called HYPK; source: bought: CDI Laboratories (HuProt v2.0 microarray)
B9: Myosin light chain 1/3, skeletal muscle isoform (natural protein)
chain: not shown
notes: human, spotted on the HuProt array; also called MYL1; source: bought: CDI Laboratories (HuProt v2.0 microarray)
B10: Polyadenylate-binding protein-interacting protein 2 (natural protein, human, UniProt Q9BPZ3 1-127, looked up)
chain: MKDPSRSSTSPSIINEDVIINGHSHEDDNPFAEYMWMENEEEFNRQIEEELWEEEFIERCFQEMLEEEEEHEWFIPARDLPQTMDQIQDQFNDLVISDGSSLEDLVVKSNLNPNAKEFVPGVKYGNI
notes: human, spotted on the HuProt array; also called PAIP2; source: bought: CDI Laboratories (HuProt v2.0 microarray)
B11: Protein FAM104B (natural protein, human, UniProt Q5XKR9 1-115, looked up)
chain: MGGCPVRKRRRNGSKEGNHHSTQPKRNKRNPIFQDSQDTEFSWSDNERSSSRINIPERASGPEGNLNQIVTEPDANFPQFLHEGLSKPVYVINWFMSFGPEIKLNTSQQGRNQAV
notes: human, spotted on the HuProt array; source: bought: CDI Laboratories (HuProt v2.0 microarray)
B12: Protein N-terminal glutamine amidohydrolase (natural protein)
chain: not shown
notes: human, spotted on the HuProt array; also called WDYHV1; source: bought: CDI Laboratories (HuProt v2.0 microarray)
B13: Ras-related protein Rab-7L1 (natural protein, human, UniProt O14966 1-203, looked up)
chain: MGSRDHLFKVLVVGDAAVGKTSLVQRYSQDSFSKHYKSTVGVDFALKVLQWSDYEIVRLQLWDIAGQERFTSMTRLYYRDASACVIMFDVTNATTFSNSQRWKQDLDSKLTLPNGEPVPCLLLANKCDLSPWAVSRDQIDRFSKENGFTGWTETSVKENKNINEAMRVLIEKMMRNSTEDIMSLSTQGDYINLQTKSSSWSCC
notes: human, spotted on the HuProt array; also called RAB29; source: bought: CDI Laboratories (HuProt v2.0 microarray)
B14: Short coiled-coil protein (natural protein, human, UniProt Q9UIL1 1-159, looked up)
chain: MRRRVFSSQDWRASGWDGMGFFSRRTFCGRSGRSCRGQLVQVSRPEVSAGSLLLPAPQAEDHSSRILYPRPKSLLPKMMNADMDAVDAENQVELEEKTRLINQVLELQHTLEDLSARVDAVKEENLKLKSENQVLGQYIENLMSASSVFQTTDTKSKRK
notes: human, spotted on the HuProt array; also called SCOC; source: bought: CDI Laboratories (HuProt v2.0 microarray)
B15: Small proline-rich protein 2B (natural protein, human, UniProt P35325 1-72, looked up)
chain: MSYQQQQCKQPCQPPPVCPTPKCPEPCPPPKCPEPCPPPKCPQPCPPQQCQQKYPPVTPSPPCQPKYPPKSK
notes: human, spotted on the HuProt array; also called SPRR2B; source: bought: CDI Laboratories (HuProt v2.0 microarray)
B16: Uncharacterized protein C4orf36 (natural protein, human, UniProt Q96KX1 1-117, looked up)
chain: MAYGVPRKNTVKTILRGSCYNVQEPWDIALLAKTWSTNLANIKLPFLEEISFGGSVQLTKCTTIKDGLLPSAESIKLEREYEVKRLCKLKCQENTSKEIQLLLRERPAGLRRPLPSK
notes: as for B11
B17: Uncharacterized protein C6orf141 (natural protein, human, UniProt Q5SZD1 1-244, looked up)
chain: MNDPFARMETRGPQGAANPMDSSRSLGDLGPFPREVGRGAPLAPGARNPATAGASRSQGGGHEDRTADRALGPRAGEELDRESWVREKVLFLLHPERWLGTRGDPAREEVAGAEDLPHAGGEDHGEEPNYPSVFQRQKRISGRRVAPPRDAADPPKYVLVRVEDYQVTQEVLQTSWAKGRMTTRTEEHFVTALTFRSSREGQPGERWGPAESRALQARTGASRVHAAGRRVSPSPGTWLEEIKL
notes: as for B11

The binders below were run against T1, TRPV4^WT N-terminal domain (IDR and ARD, amino acids 1-397) (human, UniProt Q9HBA0 1-397) (assay: peptide or protein array; HuProt Human Proteome Microarray v2.0, full-length human proteins spotted in duplicate; V5-tagged TRPV4 protein in solution at 1 μM, 1 h at 4 °C, 150 mM NaCl, 2.7 mM KCl, 25 mM Trizma base, 0.05% Tween-20, pH 7.4; detected with Alexa Fluor 647 anti-V5; hit: z-score >= 2 (N terminus: both of 2 slides; ARD constructs: at least 2 of 3 slides)). Details: both partners purified.
T1 construct: TRPV4, human, N-terminal domain (IDR and ARD), amino acids 1-397; also called TRPV4^WT N terminus; full N terminus; source: E. coli BL21(DE3), purified; not shown: His6, C-terminal, kept; V5, C-terminal, kept

Binding result, binds:
B1

What follows are binders tested against T2, TRPV4^WT-ARD (amino acids 149-397) (human, UniProt Q9HBA0 149-397) in the same assay as above. Details: both partners purified.
T2 construct: TRPV4, human, ankyrin repeat domain, amino acids 149-397; source: E. coli BL21(DE3), purified; not shown: His6, C-terminal, kept; V5, C-terminal, kept

Binding result, binds:
B2
B3
B4
B5
B6
B7
B8
B9
B10
B11
B12
B13
B14
B15
B16
B17
